# Measured values reported in paper PMC5940392 (Oncotarget, 2018).
# Target: Lysine-specific demethylase 1 (human (endogenous in HEL), UniProt O60341 1-852)
# Assay: affinity purification with mass spectrometry; LSD1-IP from HEL cells treated with NCD38 or DMSO; label-free quantification (Progenesis QI); binding rate change = normalized abundance in NCD38-treated cells divided by that in DMSO-treated cells, normalized to LSD1
# Conditions: partners not purified
# GFI1B, sequence (Q5VTD9 whole entry): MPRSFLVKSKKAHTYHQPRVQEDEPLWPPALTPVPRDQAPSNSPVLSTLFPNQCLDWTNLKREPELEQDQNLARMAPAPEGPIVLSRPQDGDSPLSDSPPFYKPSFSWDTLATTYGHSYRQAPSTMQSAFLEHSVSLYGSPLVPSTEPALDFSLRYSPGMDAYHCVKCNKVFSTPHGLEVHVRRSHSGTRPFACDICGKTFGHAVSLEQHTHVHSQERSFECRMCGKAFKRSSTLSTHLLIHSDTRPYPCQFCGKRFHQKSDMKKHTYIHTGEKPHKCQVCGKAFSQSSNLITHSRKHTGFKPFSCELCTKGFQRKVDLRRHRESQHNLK
binder,measurement,value
"GFI1B (natural protein, GFI1B, human, UniProtKB Q5VTD9; source: endogenous, HEL whole-cell lysate) not shown",binding rate after NCD38 relative to DMSO,27%
